Laboratory results as given in IntAct's records for PubMed 23977161.

B1: Prelamin-A/C (Homo sapiens), P02545 (parent)
chain: METPSQRRATRSGAQASSTPLSPTRITRLQEKEDLQELNDRLAVYIDRVRSLETENAGLRLRITESEEVVSREVSGIKAAYEAELGDARKTLDSVAKERARLQLELSKVREEFKELKARNTKKEGDLIAAQARLKDLEALLNSKEAALSTALSEKRTLEGELHDLRGQVAKLEAALGEAKKQLQDEMLRRVDAENRLQTMKEELDFQKNIYSEELRETKRRHETRLVEIDNGKQREFESRLADALQELRAQHEDQVEQYKKELEKTYSAKLDNARQSAERNSNLVGAAHEELQQSRIRIDSLSAQLSQLQKQLAAKEAKLRDLEDSLARERDTSRRLLAEKEREMAEMRARMQQQLDEYQELLDIKLALDMEIHAYRKLLEGEEERLRLSPSPTSQRSRGRASSHSSQTQGGGSVTKKRKLESTESRSSFSQHARTSGRVAVEEVDEEGKFVRLRNKSNEDQSMGNWQIKRQNGDDPLLTYRFPPKFTLKAGQVVTIWAAGAGATHSPPTDLVWKAQNTWGCGNSLRTALINSTGEEVAMRKLVRSVTVVEDDEDEDGDDLLHHHHGSHCSSSGDPAEYNLRSRTVLCGTCGQPADKASASGSGAQVGGPISSGSSASSVTVTRSYRSVGGSGGGSFGDNLVTRSYLLGNSSPRTQSPQNCSIM

Legend:
SYNE2, Q8WXH0-1 [1] = variants of: B1; settings: with SYNE2, Q8WXH0-1
SYNE2, Q8WXH0-1 [2] = variants of: B1; settings: with SYNE2, Q8WXH0-1; remark: listed apart in the source

Variant | effect of a mutation on the interaction (SYNE2, Q8WXH0-1 [1]) | effect of a mutation on the interaction (SYNE2, Q8WXH0-1 [2])
R427G | decreasing interaction strength | with no effect
L421P | decreasing interaction strength | with no effect
V415I | increasing interaction strength | with no effect
R419C | decreasing interaction strength | with no effect
G413C | decreasing interaction strength | with no effect
G411D | increasing interaction strength | with no effect
R401C | increasing interaction strength | with no effect
